From patent US20250066503A1, “CELL INJURY INDUCING THERAPEUTIC DRUG FOR USE IN CANCER THERAPY” (CHUGAI SEIYAKU KABUSHIKI KAISHA, priority 2016, published 2025) come the findings set out here.

The test concerns the target T1, soluble human CD3 epsilon chain (human, UniProt P07766 23-126).
T1 construct: also called CD3ε
Nature of the test: SPR.

T1 sequence (P07766 23-126 limits assumed): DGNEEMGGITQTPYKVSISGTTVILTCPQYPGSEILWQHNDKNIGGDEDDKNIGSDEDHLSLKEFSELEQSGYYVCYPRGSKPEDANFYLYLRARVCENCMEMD

B1: TR01H082-E22Hh/none-Hi-Kn010G3/L0271-k0 (antibody, V domains shown)
VH: QVQLVESGGGLVQPGRSLRLSCAASGFTFSNAWMHWVRQAPGKGLEWVAQIKDKSQNYATYYAESVKGRFTISRDDSKNSLYLQMNSLKTEDTAVYYCRYVHYAAGYGVDAWGQGTTVTVSS
VL: DIVMTQSPLSLPVTPGEPASISCRSSQPPVHSNRQTYLHWYQQKPGQAPRLLIYKVSNRFSGVPDRFSGSGSGTDFTLKISRVEAEDVGVYYCGQGTQVPYTFGQGTKLEIK
notes: one-arm
B1 displayed a Kd of 68.2 nM.

B2: TR01H062-E22Hh/none-Hi-Kn010G3/L0000-k0 (antibody, V domains shown)
VH: QVQLVESGGGLVQPGRSLRLSCAASGFTFSNAWMHWVRQAPGKGLEWVAQIKDKSQNYATYYAESVKGRFTISRADSKNSIYLQMNSLKTEDTAVYYCRYVHYAASYGVDAWGQGTTVTVSS
VL: DIVMTQSPLSLPVTPGEPASISCRSSQSLVHSNRNTYLHWYQQKPGQAPRLLIYKVSNRFSGVPDRFSGSGSGTDFTLKISRVEAEDVGVYYCGQGTQVPYTFGQGTKLEIKR
notes: one-arm
Molecule B2 gave a Kd of 31.3 nM.

B3: TR01H082-E22Hh/none-Hi-Kn010G3/TR01L023-k0 (antibody, V domains shown)
VH: QVQLVESGGGLVQPGRSLRLSCAASGFTFSNAWMHWVRQAPGKGLEWVAQIKDKSQNYATYYAESVKGRFTISRDDSKNSLYLQMNSLKTEDTAVYYCRYVHYAAGYGVDAWGQGTTVTVSS
VL: DIVMTQSPLSLPVTPGEPASISCRSSQSPVHSNRNTYLHWYLQKPGQSPQLLIYKVSNRFSGVPDRFSGSGSGTDFTLKISRVEAEDVGVYYCTQGTQVPYTFGQGTKLEIK
notes: one-arm
As to B3, binding was characterised by a dissociation constant (Kd) of 42.5 nM.

B4: TR01H082-E22Hh/none-Hi-Kn010G3/L0272-k0 (antibody, V domains shown)
VH: QVQLVESGGGLVQPGRSLRLSCAASGFTFSNAWMHWVRQAPGKGLEWVAQIKDKSQNYATYYAESVKGRFTISRDDSKNSLYLQMNSLKTEDTAVYYCRYVHYAAGYGVDAWGQGTTVTVSS
VL: DIVMTQSPLSLPVTPGEPASISCRSSQPLVHSNRQTYLHWYQQKPGQAPRLLIYKVSNRFSGVPDRFSGSGSGTDFTLKISRVEAEDVGVYYCGQGTQVPYTFGQGTKLEIK
notes: one-arm
Regarding B4, the affinity, expressed as Kd, was 74.4 nM.

B5: TR01H082-E22Hh/none-Hi-Kn010G3/TR01L018-k0 (antibody, V domains shown)
VH: QVQLVESGGGLVQPGRSLRLSCAASGFTFSNAWMHWVRQAPGKGLEWVAQIKDKSQNYATYYAESVKGRFTISRDDSKNSLYLQMNSLKTEDTAVYYCRYVHYAAGYGVDAWGQGTTVTVSS
VL: DIVMTQSPLSLPVTPGEPASISCQASESPVHSNRNTYLHWYLQKPGQSPQLLIYKVSNRFSGVPDRFSGSGSGTDFTLKISRVEAEDVGVYYCGQGTQVPYTFGQGTKLEIK
notes: one-arm
B5 gave a Kd of 47.2 nM.

B6: TR01H004-E22Hh//-Hi-Kn010G3/L0000-k0 (antibody, V domains shown)
VH: QVQLVESGGGVVQPGRSLRLSCAASGFTFSNAWMHWVRQAPGKGLEWVAQIKAKSNNYATYYAESVKGRFTISRDDSKNSLYLQMNSLKTEDTAVYYCRRVHYYYYYGVDAWGQGTTVTVSS
VL: DIVMTQSPLSLPVTPGEPASISCRSSQSLVHSNRNTYLHWYQQKPGQAPRLLIYKVSNRFSGVPDRFSGSGSGTDFTLKISRVEAEDVGVYYCGQGTQVPYTFGQGTKLEIKR
notes: one-arm; also called TR01H004-E22Hh//-Hi-Kn010G3/10000-ko
B6: the dissociation constant (Kd) amounted to 135 nM.

B7: TR01H003-E22Hh//-Hi-Kn010G3/L0000-k0 (antibody, V domains shown)
VH: QVQLVESGGGVVQPGRSLRLSCAASGFTFSNAWMHWVRQAPGKGLEWVAQIKAKSNNYATYYAESVKGRFTISRDDSKNSLYLQMNSLKTEDTAVYYCRRVHYGAYYGVDAWGQGTTVTVSS
VL: DIVMTQSPLSLPVTPGEPASISCRSSQSLVHSNRNTYLHWYQQKPGQAPRLLIYKVSNRFSGVPDRFSGSGSGTDFTLKISRVEAEDVGVYYCGQGTQVPYTFGQGTKLEIKR
notes: one-arm
B7 had a dissociation constant (Kd) of 40.3 nM.

B8: TR01H084-E22Hh/none-Hi-Kn010G3/L0272-k0 (antibody, V domains shown)
VH: QVQLVESGGGVVQPGGSLRLSCAASGFTFSNAWMHWVRQAPGKGLEWVAQIKDKSQNYATYYAESVKGRFTISRADSKNSIYLQMNSLKTEDTAVYYCRYVHYAAGYGVDIWGQGTTVTVSS
VL: DIVMTQSPLSLPVTPGEPASISCRSSQPLVHSNRQTYLHWYQQKPGQAPRLLIYKVSNRFSGVPDRFSGSGSGTDFTLKISRVEAEDVGVYYCGQGTQVPYTFGQGTKLEIK
notes: one-arm
Molecule B8 came in with a dissociation constant Kd of 31 nM.

B9: CE115HA121-E22Hh/-Hi-Kn010G3/L0000-k0 (antibody, V domains shown)
VH: QVQLVESGGGVVQPGRSLRLSCAASGFTFSNAWMHWVRQAPGKGLEWVALIKAKSNNYATYYAESVKGRFTISRDDSKNSLYLQMNSLKTEDTAVYYCRYVHYGAYYGVDAWGQGTTVTVSS
VL: DIVMTQSPLSLPVTPGEPASISCRSSQSLVHSNRNTYLHWYQQKPGQAPRLLIYKVSNRFSGVPDRFSGSGSGTDFTLKISRVEAEDVGVYYCGQGTQVPYTFGQGTKLEIKR
notes: one-arm
In turn, B9 showed a Kd of 67.6 nM.

B10: TR01H084-E22Hh/none-Hi-Kn010G3/L0270-k0 (antibody, V domains shown)
VH: QVQLVESGGGVVQPGGSLRLSCAASGFTFSNAWMHWVRQAPGKGLEWVAQIKDKSQNYATYYAESVKGRFTISRADSKNSIYLQMNSLKTEDTAVYYCRYVHYAAGYGVDIWGQGTTVTVSS
VL: DIVMTQSPLSLPVTPGEPASISCRSSQSLVHSNRQTYLHWYQQKPGQAPRLLIYKVSNRFSGVPDRFSGSGSGTDFTLKISRVEAEDVGVYYCGQGTQVPYTFGQGTKLEIK
notes: one-arm
With B10, the Kd came out at 27.6 nM.

B11: CE115HA179-G1dh//-Hi-Kn010G3/L0000-k0 (antibody, V domains shown)
VH: QVQLVESGGGLVQPGRSLRLSCAASGFTFSNAWMHWVRQAPGKGLEWVAQIKAKSNNYATYYAESVKGRFTISRADSKNSIYLQMNSLKTEDTAVYYCRYVHYGAYYGVQAWGQGTTVTVSS
VL: DIVMTQSPLSLPVTPGEPASISCRSSQSLVHSNRNTYLHWYQQKPGQAPRLLIYKVSNRFSGVPDRFSGSGSGTDFTLKISRVEAEDVGVYYCGQGTQVPYTFGQGTKLEIKR
notes: one-arm
With B11, the equilibrium dissociation constant (Kd) is 8.35 nM.

B12: TR01H083-E22Hh/none-Hi-Kn010G3/L0262-k0 (antibody, V domains shown)
VH: QVQLVESGGGLVQPGRSLRLSCAASGFTFSNAWMHWVRQAPGKGLEWVAQIKDKSNNYATYYAESVKGRFTISRADSKNSIYLQMNSLKTEDTAVYYCRYVHYAAGYGVDIWGQGTTVTVSS
VL: DIVMTQSPLSLPVTPGEPASISCRSSQPPVHSNRNTYLHWYQQKPGQAPRLLIYKVSNRFSGVPDRFSGSGSGTDFTLKISRVEAEDVGVYYCAQGTQVPYTFGQGTKLEIK
notes: one-arm
Regarding B12, the affinity, expressed as Kd, was 2.45 nM.

B13: CE115HA178-G1dh//-Hi-Kn010G3/L0000-k0 (antibody, V domains shown)
VH: QVQLVESGGGLVQPGRSLRLSCAASGFTFSNAWMHWVRQAPGKGLEWVAQIKAKSNNYATYYAESVKGRFTISRDDSKNSIYLQMNSLKTEDTAVYYCRYVHYGAYYGVQAWGQGTTVTVSS
VL: DIVMTQSPLSLPVTPGEPASISCRSSQSLVHSNRNTYLHWYQQKPGQAPRLLIYKVSNRFSGVPDRFSGSGSGTDFTLKISRVEAEDVGVYYCGQGTQVPYTFGQGTKLEIKR
notes: one-arm
B13 returned a dissociation constant Kd of 10.9 nM.

B14: CE115HA180-G1dh//-Hi-Kn010G3/L0000-k0 (antibody, V domains shown)
VH: QVQLVESGGGVVQPGRSLRLSCAASGFTFSNAWMHWVRQAPGKGLEWVAQIKAKSNNYATYYAESVKGRFTISRADSKNSLYLQMNSLKTEDTAVYYCRYVHYGAYYGVQAWGQGTTVTVSS
VL: DIVMTQSPLSLPVTPGEPASISCRSSQSLVHSNRNTYLHWYQQKPGQAPRLLIYKVSNRFSGVPDRFSGSGSGTDFTLKISRVEAEDVGVYYCGQGTQVPYTFGQGTKLEIKR
notes: one-arm
Regarding B14, binding was put at a Kd of 16.8 nM.

B15: CE115HA177-G1dh//-Hi-Kn010G3/L0000-k0 (antibody, V domains shown)
VH: QVQLVESGGGLVQPGRSLRLSCAASGFTFSNAWMHWVRQAPGKGLEWVAQIKAKSNNYATYYAESVKGRFTISRADSKNSIYLQMNSLKTEDTAVYYCRYVHYGAYYGVDAWGQGTTVTVSS
VL: DIVMTQSPLSLPVTPGEPASISCRSSQSLVHSNRNTYLHWYQQKPGQAPRLLIYKVSNRFSGVPDRFSGSGSGTDFTLKISRVEAEDVGVYYCGQGTQVPYTFGQGTKLEIKR
notes: one-arm
B15 yielded a Kd of 35.5 nM.

B16: TR01H084-E22Hh/none-Hi-Kn010G3/L0271-k0 (antibody, V domains shown)
VH: QVQLVESGGGVVQPGGSLRLSCAASGFTFSNAWMHWVRQAPGKGLEWVAQIKDKSQNYATYYAESVKGRFTISRADSKNSIYLQMNSLKTEDTAVYYCRYVHYAAGYGVDIWGQGTTVTVSS
VL: DIVMTQSPLSLPVTPGEPASISCRSSQPPVHSNRQTYLHWYQQKPGQAPRLLIYKVSNRFSGVPDRFSGSGSGTDFTLKISRVEAEDVGVYYCGQGTQVPYTFGQGTKLEIK
notes: one-arm
As for B16, the Kd stood at 27.6 nM.

B17: TR01H082-E22Hh/none-Hi-Kn010G3/TR01L017-k0 (antibody, V domains shown)
VH: QVQLVESGGGLVQPGRSLRLSCAASGFTFSNAWMHWVRQAPGKGLEWVAQIKDKSQNYATYYAESVKGRFTISRDDSKNSLYLQMNSLKTEDTAVYYCRYVHYAAGYGVDAWGQGTTVTVSS
VL: DIVMTQSPLSLPVTPGEPASISCRSSQSPVHSNRNTYIQWYLQKPGQSPQLLIYKVSNRFSGVPDRFSGSGSGTDFTLKISRVEAEDVGVYYCYQGTQVPYTFGQGTKLEIK
notes: one-arm
With B17, the dissociation constant (Kd) came to 109 nM.

B18: CE115HA124-E22Hh//-Hi-Kn010G3/L0000-k0 (antibody, V domains shown)
VH: QVQLVESGGGVVQPGRSLRLSCAASGFTFSNAWMHWVRQAPGKGLEWVAQIKALSNNYATYYAESVKGRFTISRDDSKNSLYLQMNSLKTEDTAVYYCRYVHYGAYYGVDAWGQGTTVTVSS
VL: DIVMTQSPLSLPVTPGEPASISCRSSQSLVHSNRNTYLHWYQQKPGQAPRLLIYKVSNRFSGVPDRFSGSGSGTDFTLKISRVEAEDVGVYYCGQGTQVPYTFGQGTKLEIKR
notes: one-arm
On to B18, for which the affinity, expressed as Kd, was 143 nM.

B19: CE115HA252-E22Hh//-Hi-Kn010G3/L0000-k0 (antibody, V domains shown)
VH: QVQLVESGGGVVQPGRSLRLSCAASGFTFSNAWMHWVRQAPGKGLEWVAQIKAKSNNYKKYYAESVKGRFTISRDDSKNSLYLQMNSLKTEDTAVYYCRYVHYYYYYGVDAWGQGTTVTVSS
VL: DIVMTQSPLSLPVTPGEPASISCRSSQSLVHSNRNTYLHWYQQKPGQAPRLLIYKVSNRFSGVPDRFSGSGSGTDFTLKISRVEAEDVGVYYCGQGTQVPYTFGQGTKLEIKR
notes: one-arm
In turn, B19 displayed a Kd of 9.48 nM.

B20: TR01H084-E22Hh/none-Hi-Kn010G3/L0262-k0 (antibody, V domains shown)
VH: QVQLVESGGGVVQPGGSLRLSCAASGFTFSNAWMHWVRQAPGKGLEWVAQIKDKSQNYATYYAESVKGRFTISRADSKNSIYLQMNSLKTEDTAVYYCRYVHYAAGYGVDIWGQGTTVTVSS
VL: DIVMTQSPLSLPVTPGEPASISCRSSQPPVHSNRNTYLHWYQQKPGQAPRLLIYKVSNRFSGVPDRFSGSGSGTDFTLKISRVEAEDVGVYYCAQGTQVPYTFGQGTKLEIK
notes: one-arm
Molecule B20 had a Kd of 8.51 nM.

B21: CE115HA192-E22Hh//-Hi-Kn010G3/L0000-k0 (antibody, V domains shown)
VH: QVQLVESGGGVVQPGRSLRLSCAASGFTFSNAWMHWVRQAPGKGLEWVAQIKAKSNNYATYYAESVKGRFTISRDDSKNSLYLQMNSLKTEDTAVYYCRYVHYYAYYGVDAWGQGTTVTVSS
VL: DIVMTQSPLSLPVTPGEPASISCRSSQSLVHSNRNTYLHWYQQKPGQAPRLLIYKVSNRFSGVPDRFSGSGSGTDFTLKISRVEAEDVGVYYCGQGTQVPYTFGQGTKLEIKR
notes: one-arm
The molecule B21 had a Kd of 50.5 nM.
